Test results reported in article PMC2681181.
Blank lines part the entries; values can stand above or below the substance they belong to.

Target: Integrin β1 (human (endogenous in MCF-7 and MCF-10A)) (UniProt P05556)
Experiment: co-IP

Sequence of UniProt P05556 (P05556 21-798): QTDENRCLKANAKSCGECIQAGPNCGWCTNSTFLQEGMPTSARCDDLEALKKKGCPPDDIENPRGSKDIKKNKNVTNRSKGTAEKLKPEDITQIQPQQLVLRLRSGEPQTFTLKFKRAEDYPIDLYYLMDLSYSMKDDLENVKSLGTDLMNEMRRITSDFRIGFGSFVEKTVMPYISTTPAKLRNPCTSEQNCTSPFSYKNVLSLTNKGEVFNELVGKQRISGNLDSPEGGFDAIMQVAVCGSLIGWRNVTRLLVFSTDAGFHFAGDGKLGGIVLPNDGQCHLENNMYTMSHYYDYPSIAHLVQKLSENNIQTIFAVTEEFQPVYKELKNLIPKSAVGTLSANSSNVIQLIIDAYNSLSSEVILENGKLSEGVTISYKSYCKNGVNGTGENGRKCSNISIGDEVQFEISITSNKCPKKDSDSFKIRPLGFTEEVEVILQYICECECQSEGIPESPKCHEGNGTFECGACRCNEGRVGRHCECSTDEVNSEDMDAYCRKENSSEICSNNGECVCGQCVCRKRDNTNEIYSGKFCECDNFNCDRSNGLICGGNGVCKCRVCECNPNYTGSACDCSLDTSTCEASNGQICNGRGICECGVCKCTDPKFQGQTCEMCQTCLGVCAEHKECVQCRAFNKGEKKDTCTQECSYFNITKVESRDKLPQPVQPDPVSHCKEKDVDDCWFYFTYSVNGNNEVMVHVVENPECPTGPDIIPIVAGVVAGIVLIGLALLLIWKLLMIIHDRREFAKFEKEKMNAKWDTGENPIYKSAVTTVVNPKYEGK

percent decrease of co-precipitated LAM in the combined CII/LAM treatment: 27.8%
Substance: laminin (from UniProt P02469 22-1786) (complex)

percent decrease of co-precipitated CII in the combined CII/LAM treatment: 27.1%
Substance: type II collagen (from UniProt P02459 182-1241) (ligand)

percent increase of co-precipitated INTα2 after combined CII/LAM treatment: 53.8%
Substance: Integrin α2 (from UniProt P17301 30-1181) (receptor)
